Data on 21 molecules can be found in patent publication EP2336190A2 (Genentech, Inc., dated 2011).

B1: pY0192 VH Y27A (Fab, V domains shown)
VH: EVQLVESGGGLVQPGGSLRLSCAASGATFTNYGINWVRQAPGKGLEWVGWINTYTGEPTYAADFKRRFTFSLDTSKSTAYLQMNSLRAEDTAVYYCAKYPHYYGSSHWYFDVWGQGTL
VL: DIQLTQSPSSLSASVGDRVTITCRANEQLSNYLNWYQQKPGKAPKVLIYFTSSLHSGVPSRFSGSGSGTDFTLTISSLQPEDFATYYCQQYSTVPWTFGQGTKVEIKR
B2: pY0192 VH P100A (Fab, V domains shown)
VH: EVQLVESGGGLVQPGGSLRLSCAASGYTFTNYGINWVRQAPGKGLEWVGWINTYTGEPTYAADFKRRFTFSLDTSKSTAYLQMNSLRAEDTAVYYCAKYAHYYGSSHWYFDVWGQGTL
VL: DIQLTQSPSSLSASVGDRVTITCRANEQLSNYLNWYQQKPGKAPKVLIYFTSSLHSGVPSRFSGSGSGTDFTLTISSLQPEDFATYYCQQYSTVPWTFGQGTKVEIKR
B3: pY0192 VH Y54A (Fab, V domains shown)
VH: EVQLVESGGGLVQPGGSLRLSCAASGYTFTNYGINWVRQAPGKGLEWVGWINTATGEPTYAADFKRRFTFSLDTSKSTAYLQMNSLRAEDTAVYYCAKYPHYYGSSHWYFDVWGQGTL
VL: DIQLTQSPSSLSASVGDRVTITCRANEQLSNYLNWYQQKPGKAPKVLIYFTSSLHSGVPSRFSGSGSGTDFTLTISSLQPEDFATYYCQQYSTVPWTFGQGTKVEIKR
B4: pY0192 VH W108A (Fab, V domains shown)
VH: EVQLVESGGGLVQPGGSLRLSCAASGYTFTNYGINWVRQAPGKGLEWVGWINTYTGEPTYAADFKRRFTFSLDTSKSTAYLQMNSLRAEDTAVYYCAKYPHYYGSSHAYFDVWGQGTL
VL: DIQLTQSPSSLSASVGDRVTITCRANEQLSNYLNWYQQKPGKAPKVLIYFTSSLHSGVPSRFSGSGSGTDFTLTISSLQPEDFATYYCQQYSTVPWTFGQGTKVEIKR
B5: pY0192 VH T59A (Fab, V domains shown)
VH: EVQLVESGGGLVQPGGSLRLSCAASGYTFTNYGINWVRQAPGKGLEWVGWINTYTGEPAYAADFKRRFTFSLDTSKSTAYLQMNSLRAEDTAVYYCAKYPHYYGSSHWYFDVWGQGTL
VL: DIQLTQSPSSLSASVGDRVTITCRANEQLSNYLNWYQQKPGKAPKVLIYFTSSLHSGVPSRFSGSGSGTDFTLTISSLQPEDFATYYCQQYSTVPWTFGQGTKVEIKR
B6: pY0192 VH G33A (Fab, V domains shown)
VH: EVQLVESGGGLVQPGGSLRLSCAASGYTFTNYAINWVRQAPGKGLEWVGWINTYTGEPTYAADFKRRFTFSLDTSKSTAYLQMNSLRAEDTAVYYCAKYPHYYGSSHWYFDVWGQGTL
VL: DIQLTQSPSSLSASVGDRVTITCRANEQLSNYLNWYQQKPGKAPKVLIYFTSSLHSGVPSRFSGSGSGTDFTLTISSLQPEDFATYYCQQYSTVPWTFGQGTKVEIKR
B7: pY0192 VH I51A (Fab, V domains shown)
VH: EVQLVESGGGLVQPGGSLRLSCAASGYTFTNYGINWVRQAPGKGLEWVGWANTYTGEPTYAADFKRRFTFSLDTSKSTAYLQMNSLRAEDTAVYYCAKYPHYYGSSHWYFDVWGQGTL
VL: DIQLTQSPSSLSASVGDRVTITCRANEQLSNYLNWYQQKPGKAPKVLIYFTSSLHSGVPSRFSGSGSGTDFTLTISSLQPEDFATYYCQQYSTVPWTFGQGTKVEIKR
B8: pY0192 VH T53A (Fab, V domains shown)
VH: EVQLVESGGGLVQPGGSLRLSCAASGYTFTNYGINWVRQAPGKGLEWVGWINAYTGEPTYAADFKRRFTFSLDTSKSTAYLQMNSLRAEDTAVYYCAKYPHYYGSSHWYFDVWGQGTL
VL: DIQLTQSPSSLSASVGDRVTITCRANEQLSNYLNWYQQKPGKAPKVLIYFTSSLHSGVPSRFSGSGSGTDFTLTISSLQPEDFATYYCQQYSTVPWTFGQGTKVEIKR
B9: pY0192 VH I34A (Fab, V domains shown)
VH: EVQLVESGGGLVQPGGSLRLSCAASGYTFTNYGANWVRQAPGKGLEWVGWINTYTGEPTYAADFKRRFTFSLDTSKSTAYLQMNSLRAEDTAVYYCAKYPHYYGSSHWYFDVWGQGTL
VL: DIQLTQSPSSLSASVGDRVTITCRANEQLSNYLNWYQQKPGKAPKVLIYFTSSLHSGVPSRFSGSGSGTDFTLTISSLQPEDFATYYCQQYSTVPWTFGQGTKVEIKR
B10: pY0192 VH T55A (Fab, V domains shown)
VH: EVQLVESGGGLVQPGGSLRLSCAASGYTFTNYGINWVRQAPGKGLEWVGWINTYAGEPTYAADFKRRFTFSLDTSKSTAYLQMNSLRAEDTAVYYCAKYPHYYGSSHWYFDVWGQGTL
VL: DIQLTQSPSSLSASVGDRVTITCRANEQLSNYLNWYQQKPGKAPKVLIYFTSSLHSGVPSRFSGSGSGTDFTLTISSLQPEDFATYYCQQYSTVPWTFGQGTKVEIKR
B11: pY0192 VH F29A (Fab, V domains shown)
VH: EVQLVESGGGLVQPGGSLRLSCAASGYTATNYGINWVRQAPGKGLEWVGWINTYTGEPTYAADFKRRFTFSLDTSKSTAYLQMNSLRAEDTAVYYCAKYPHYYGSSHWYFDVWGQGTL
VL: DIQLTQSPSSLSASVGDRVTITCRANEQLSNYLNWYQQKPGKAPKVLIYFTSSLHSGVPSRFSGSGSGTDFTLTISSLQPEDFATYYCQQYSTVPWTFGQGTKVEIKR
B12: pY0192 VH Y32A (Fab, V domains shown)
VH: EVQLVESGGGLVQPGGSLRLSCAASGYTFTNAGINWVRQAPGKGLEWVGWINTYTGEPTYAADFKRRFTFSLDTSKSTAYLQMNSLRAEDTAVYYCAKYPHYYGSSHWYFDVWGQGTL
VL: DIQLTQSPSSLSASVGDRVTITCRANEQLSNYLNWYQQKPGKAPKVLIYFTSSLHSGVPSRFSGSGSGTDFTLTISSLQPEDFATYYCQQYSTVPWTFGQGTKVEIKR
B13: pY0192 VH N31A (Fab, V domains shown)
VH: EVQLVESGGGLVQPGGSLRLSCAASGYTFTAYGINWVRQAPGKGLEWVGWINTYTGEPTYAADFKRRFTFSLDTSKSTAYLQMNSLRAEDTAVYYCAKYPHYYGSSHWYFDVWGQGTL
VL: DIQLTQSPSSLSASVGDRVTITCRANEQLSNYLNWYQQKPGKAPKVLIYFTSSLHSGVPSRFSGSGSGTDFTLTISSLQPEDFATYYCQQYSTVPWTFGQGTKVEIKR
B14: pY0192 VH Y102A (Fab, V domains shown)
VH: EVQLVESGGGLVQPGGSLRLSCAASGYTFTNYGINWVRQAPGKGLEWVGWINTYTGEPTYAADFKRRFTFSLDTSKSTAYLQMNSLRAEDTAVYYCAKYPHAYGSSHWYFDVWGQGTL
VL: DIQLTQSPSSLSASVGDRVTITCRANEQLSNYLNWYQQKPGKAPKVLIYFTSSLHSGVPSRFSGSGSGTDFTLTISSLQPEDFATYYCQQYSTVPWTFGQGTKVEIKR
B15: pY0192 VH S106A (Fab, V domains shown)
VH: EVQLVESGGGLVQPGGSLRLSCAASGYTFTNYGINWVRQAPGKGLEWVGWINTYTGEPTYAADFKRRFTFSLDTSKSTAYLQMNSLRAEDTAVYYCAKYPHYYGSAHWYFDVWGQGTL
VL: DIQLTQSPSSLSASVGDRVTITCRANEQLSNYLNWYQQKPGKAPKVLIYFTSSLHSGVPSRFSGSGSGTDFTLTISSLQPEDFATYYCQQYSTVPWTFGQGTKVEIKR
B16: pY0192 VH N35A (Fab, V domains shown)
VH: EVQLVESGGGLVQPGGSLRLSCAASGYTFTNYGIAWVRQAPGKGLEWVGWINTYTGEPTYAADFKRRFTFSLDTSKSTAYLQMNSLRAEDTAVYYCAKYPHYYGSSHWYFDVWGQGTL
VL: DIQLTQSPSSLSASVGDRVTITCRANEQLSNYLNWYQQKPGKAPKVLIYFTSSLHSGVPSRFSGSGSGTDFTLTISSLQPEDFATYYCQQYSTVPWTFGQGTKVEIKR
B17: pY0192 VH W50A (Fab, V domains shown)
VH: EVQLVESGGGLVQPGGSLRLSCAASGYTFTNYGINWVRQAPGKGLEWVGAINTYTGEPTYAADFKRRFTFSLDTSKSTAYLQMNSLRAEDTAVYYCAKYPHYYGSSHWYFDVWGQGTL
VL: DIQLTQSPSSLSASVGDRVTITCRANEQLSNYLNWYQQKPGKAPKVLIYFTSSLHSGVPSRFSGSGSGTDFTLTISSLQPEDFATYYCQQYSTVPWTFGQGTKVEIKR
B18: pY0192 VH H101A (Fab, V domains shown)
VH: EVQLVESGGGLVQPGGSLRLSCAASGYTFTNYGINWVRQAPGKGLEWVGWINTYTGEPTYAADFKRRFTFSLDTSKSTAYLQMNSLRAEDTAVYYCAKYPAYYGSSHWYFDVWGQGTL
VL: DIQLTQSPSSLSASVGDRVTITCRANEQLSNYLNWYQQKPGKAPKVLIYFTSSLHSGVPSRFSGSGSGTDFTLTISSLQPEDFATYYCQQYSTVPWTFGQGTKVEIKR
B19: pY0192 VH N52A (Fab, V domains shown)
VH: EVQLVESGGGLVQPGGSLRLSCAASGYTFTNYGINWVRQAPGKGLEWVGWIATYTGEPTYAADFKRRFTFSLDTSKSTAYLQMNSLRAEDTAVYYCAKYPHYYGSSHWYFDVWGQGTL
VL: DIQLTQSPSSLSASVGDRVTITCRANEQLSNYLNWYQQKPGKAPKVLIYFTSSLHSGVPSRFSGSGSGTDFTLTISSLQPEDFATYYCQQYSTVPWTFGQGTKVEIKR
B20: pY0192 VH Y103A (Fab, V domains shown)
VH: EVQLVESGGGLVQPGGSLRLSCAASGYTFTNYGINWVRQAPGKGLEWVGWINTYTGEPTYAADFKRRFTFSLDTSKSTAYLQMNSLRAEDTAVYYCAKYPHYAGSSHWYFDVWGQGTL
VL: DIQLTQSPSSLSASVGDRVTITCRANEQLSNYLNWYQQKPGKAPKVLIYFTSSLHSGVPSRFSGSGSGTDFTLTISSLQPEDFATYYCQQYSTVPWTFGQGTKVEIKR
B21: pY0192 VH Y99A (Fab, V domains shown)
VH: EVQLVESGGGLVQPGGSLRLSCAASGYTFTNYGINWVRQAPGKGLEWVGWINTYTGEPTYAADFKRRFTFSLDTSKSTAYLQMNSLRAEDTAVYYCAKAPHYYGSSHWYFDVWGQGTL
VL: DIQLTQSPSSLSASVGDRVTITCRANEQLSNYLNWYQQKPGKAPKVLIYFTSSLHSGVPSRFSGSGSGTDFTLTISSLQPEDFATYYCQQYSTVPWTFGQGTKVEIKR

Some results are limits rather than exact numbers.

For the test, the target named is T1, VEGF (human, UniProt P15692-4 27-191, limits assumed).
T1 construct: also called human VEGF; vascular endothelial growth factor
T1 sequence (P15692 other isoform, or with tags, fused parts or gaps limits assumed): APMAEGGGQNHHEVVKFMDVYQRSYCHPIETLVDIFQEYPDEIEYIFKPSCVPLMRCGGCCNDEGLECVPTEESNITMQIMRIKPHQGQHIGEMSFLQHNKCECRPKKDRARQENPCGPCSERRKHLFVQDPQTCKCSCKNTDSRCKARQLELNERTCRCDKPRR
As to the kind of experiment: competitive phage-ELISA, wt = pY0192.
B1 registered an IC50 (mut) / IC50 (wt) of 34.
Take B2: the IC50 (mut) / IC50 (wt) was determined as 38.
The figure for B3 is 9.
The figure for B4 is greater than 150; for B5 it is 3; for B6 it is 6.
The figure for B7 is 4.
The molecule B8 displayed an IC50 (mut) / IC50 (wt) of 9.
For the molecule B9, the IC50 (mut) / IC50 (wt) was 6.
In the case of B10 it was 4; in that of B11, 16; in that of B12, greater than 150.
In the case of B13 it was greater than 150; in that of B14, 4.
The figure for B15 is greater than 150; for B16 it is 66.
As to B17, the IC50 (mut) / IC50 (wt) was greater than 150.
In the case of B18 it was 4; in that of B19, greater than 150; in that of B20, 5.
For the molecule B21, the IC50 (mut) / IC50 (wt) is greater than 150.
